From doi:10.1101/511758 (bioRxiv, 2019)
Like-named read-outs stand apart in the source and are kept apart here.

Tests used:
[1] = target: the molecule itself; test: SEC-MALS
[2] = target: T1, HelQ (Homo sapiens, UniProt Q8TDG4); test: EMSA
T1 sequence: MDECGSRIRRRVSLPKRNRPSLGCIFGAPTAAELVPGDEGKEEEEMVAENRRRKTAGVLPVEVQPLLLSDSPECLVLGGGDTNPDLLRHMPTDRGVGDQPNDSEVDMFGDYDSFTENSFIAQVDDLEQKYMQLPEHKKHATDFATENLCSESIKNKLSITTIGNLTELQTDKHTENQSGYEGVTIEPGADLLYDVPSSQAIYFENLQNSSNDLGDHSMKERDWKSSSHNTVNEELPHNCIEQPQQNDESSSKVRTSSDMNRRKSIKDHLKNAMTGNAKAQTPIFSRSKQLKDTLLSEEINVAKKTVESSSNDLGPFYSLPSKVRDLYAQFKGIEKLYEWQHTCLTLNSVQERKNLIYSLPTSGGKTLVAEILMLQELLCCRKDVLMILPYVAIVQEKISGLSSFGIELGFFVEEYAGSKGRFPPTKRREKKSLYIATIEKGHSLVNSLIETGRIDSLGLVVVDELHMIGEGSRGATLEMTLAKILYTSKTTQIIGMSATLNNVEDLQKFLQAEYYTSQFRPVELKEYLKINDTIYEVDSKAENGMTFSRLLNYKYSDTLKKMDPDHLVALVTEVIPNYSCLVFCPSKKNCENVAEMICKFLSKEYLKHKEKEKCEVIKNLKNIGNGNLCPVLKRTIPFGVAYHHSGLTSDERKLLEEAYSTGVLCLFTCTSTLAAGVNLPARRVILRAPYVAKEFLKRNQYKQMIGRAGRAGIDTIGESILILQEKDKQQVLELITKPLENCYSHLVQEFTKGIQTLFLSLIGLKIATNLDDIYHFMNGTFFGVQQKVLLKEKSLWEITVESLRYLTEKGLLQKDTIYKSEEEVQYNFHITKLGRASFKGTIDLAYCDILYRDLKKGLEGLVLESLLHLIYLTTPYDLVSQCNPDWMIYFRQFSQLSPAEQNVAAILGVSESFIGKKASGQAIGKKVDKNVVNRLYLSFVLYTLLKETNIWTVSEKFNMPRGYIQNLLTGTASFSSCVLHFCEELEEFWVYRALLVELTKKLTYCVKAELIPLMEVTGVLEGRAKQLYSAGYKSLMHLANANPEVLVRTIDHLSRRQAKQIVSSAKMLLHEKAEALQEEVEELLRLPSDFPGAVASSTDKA

[3] = target: HelQ;RPA (Homo sapiens;Homo sapiens, UniProt Q8TDG4;P27694;P15927;P35244 ;1-616;1-270;1-121, |); test: EMSA
[4] = target: N-HelQ;RPA (Homo sapiens;Homo sapiens, UniProt Q8TDG4;P27694;P15927;P35244 1-417;1-616;1-270;1-121, |); test: EMSA
[5] = target: T1, HelQ; test: EMSA; remark: listed apart in the source
[6] = target: T2, N-HelQ (Homo sapiens, UniProt Q8TDG4 1-417); test: EMSA
T2 sequence: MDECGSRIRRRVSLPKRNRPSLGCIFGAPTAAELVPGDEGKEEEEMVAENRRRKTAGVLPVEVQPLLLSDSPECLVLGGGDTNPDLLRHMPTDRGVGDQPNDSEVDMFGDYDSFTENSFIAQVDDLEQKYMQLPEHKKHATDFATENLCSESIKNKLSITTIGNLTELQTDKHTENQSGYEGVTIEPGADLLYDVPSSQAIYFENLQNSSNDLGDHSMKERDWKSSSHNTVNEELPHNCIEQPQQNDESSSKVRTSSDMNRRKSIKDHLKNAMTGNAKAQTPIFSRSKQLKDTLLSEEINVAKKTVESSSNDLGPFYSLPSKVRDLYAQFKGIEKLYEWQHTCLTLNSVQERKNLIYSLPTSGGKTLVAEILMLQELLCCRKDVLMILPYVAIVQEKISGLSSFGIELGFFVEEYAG

[7] = target: SSB (Escherichia coli, UniProt P0AGE0 1-178); test: EMSA
Chain of SSB (P0AGE0 whole entry): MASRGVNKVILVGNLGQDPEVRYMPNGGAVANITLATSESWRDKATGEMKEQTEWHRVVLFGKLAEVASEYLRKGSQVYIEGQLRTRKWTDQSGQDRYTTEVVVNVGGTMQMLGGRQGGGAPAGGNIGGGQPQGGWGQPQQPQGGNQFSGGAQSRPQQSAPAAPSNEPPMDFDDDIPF

Chain of N-HelQ;RPA (P27694 whole entry, chain 2 of 3): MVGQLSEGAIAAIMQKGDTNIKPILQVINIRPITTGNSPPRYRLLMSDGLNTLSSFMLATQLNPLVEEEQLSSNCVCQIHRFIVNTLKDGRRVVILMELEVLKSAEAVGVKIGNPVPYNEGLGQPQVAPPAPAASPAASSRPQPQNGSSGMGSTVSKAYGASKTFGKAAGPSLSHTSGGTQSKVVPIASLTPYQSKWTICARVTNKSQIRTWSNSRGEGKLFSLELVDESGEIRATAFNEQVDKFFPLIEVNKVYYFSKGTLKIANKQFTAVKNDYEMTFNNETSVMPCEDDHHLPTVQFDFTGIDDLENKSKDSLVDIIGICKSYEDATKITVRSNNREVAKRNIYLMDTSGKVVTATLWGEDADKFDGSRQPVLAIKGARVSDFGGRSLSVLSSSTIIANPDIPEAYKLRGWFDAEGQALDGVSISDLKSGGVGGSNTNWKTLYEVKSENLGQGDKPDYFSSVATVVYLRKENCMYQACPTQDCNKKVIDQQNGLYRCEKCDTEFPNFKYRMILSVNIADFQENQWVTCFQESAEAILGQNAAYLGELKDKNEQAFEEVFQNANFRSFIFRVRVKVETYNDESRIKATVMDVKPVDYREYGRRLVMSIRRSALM
Chain of N-HelQ;RPA (P15927 whole entry, chain 3 of 3): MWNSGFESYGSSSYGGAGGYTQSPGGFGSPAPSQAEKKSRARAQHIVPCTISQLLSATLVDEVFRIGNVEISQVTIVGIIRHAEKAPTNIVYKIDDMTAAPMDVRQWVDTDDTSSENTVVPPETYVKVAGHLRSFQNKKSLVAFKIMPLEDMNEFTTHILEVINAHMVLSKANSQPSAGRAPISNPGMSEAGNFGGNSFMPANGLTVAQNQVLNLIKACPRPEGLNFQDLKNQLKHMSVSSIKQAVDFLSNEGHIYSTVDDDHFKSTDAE
Chain of N-HelQ;RPA (P35244 whole entry, chain 4 of 3): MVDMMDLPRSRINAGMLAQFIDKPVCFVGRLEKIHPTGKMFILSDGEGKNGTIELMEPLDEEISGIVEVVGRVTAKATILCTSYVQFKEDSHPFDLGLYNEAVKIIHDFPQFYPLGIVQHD
Chain of HelQ;RPA (P27694 whole entry, chain 2 of 3): as the sequence (P27694 whole entry, chain 2 of 3) above
Chain of HelQ;RPA (P15927 whole entry, chain 3 of 3): as the sequence (P15927 whole entry, chain 3 of 3) above
Chain of HelQ;RPA (P35244 whole entry, chain 4 of 3): as the sequence (P35244 whole entry, chain 4 of 3) above

B1: human HelQ helicase (full-length HelQ) (enzyme)
chain: MDECGSRIRRRVSLPKRNRPSLGCIFGAPTAAELVPGDEGKEEEEMVAENRRRKTAGVLPVEVQPLLLSDSPECLVLGGGDTNPDLLRHMPTDRGVGDQPNDSEVDMFGDYDSFTENSFIAQVDDLEQKYMQLPEHKKHATDFATENLCSESIKNKLSITTIGNLTELQTDKHTENQSGYEGVTIEPGADLLYDVPSSQAIYFENLQNSSNDLGDHSMKERDWKSSSHNTVNEELPHNCIEQPQQNDESSSKVRTSSDMNRRKSIKDHLKNAMTGNAKAQTPIFSRSKQLKDTLLSEEINVAKKTVESSSNDLGPFYSLPSKVRDLYAQFKGIEKLYEWQHTCLTLNSVQERKNLIYSLPTSGGKTLVAEILMLQELLCCRKDVLMILPYVAIVQEKISGLSSFGIELGFFVEEYAGSKGRFPPTKRREKKSLYIATIEKGHSLVNSLIETGRIDSLGLVVVDELHMIGEGSRGATLEMTLAKILYTSKTTQIIGMSATLNNVEDLQKFLQAEYYTSQFRPVELKEYLKINDTIYEVDSKAENGMTFSRLLNYKYSDTLKKMDPDHLVALVTEVIPNYSCLVFCPSKKNCENVAEMICKFLSKEYLKHKEKEKCEVIKNLKNIGNGNLCPVLKRTIPFGVAYHHSGLTSDERKLLEEAYSTGVLCLFTCTSTLAAGVNLPARRVILRAPYVAKEFLKRNQYKQMIGRAGRAGIDTIGESILILQEKDKQQVLELITKPLENCYSHLVQEFTKGIQTLFLSLIGLKIATNLDDIYHFMNGTFFGVQQKVLLKEKSLWEITVESLRYLTEKGLLQKDTIYKSEEEVQYNFHITKLGRASFKGTIDLAYCDILYRDLKKGLEGLVLESLLHLIYLTTPYDLVSQCNPDWMIYFRQFSQLSPAEQNVAAILGVSESFIGKKASGQAIGKKVDKNVVNRLYLSFVLYTLLKETNIWTVSEKFNMPRGYIQNLLTGTASFSSCVLHFCEELEEFWVYRALLVELTKKLTYCVKAELIPLMEVTGVLEGRAKQLYSAGYKSLMHLANANPEVLVRTIDHLSRRQAKQIVSSAKMLLHEKAEALQEEVEELLRLPSDFPGAVASSTDKA
[1]
  stoichiometry N: 2

B2: Fork-Me (mixed)
DNA 1: GTCGGATCCTCTAGACAGCATCCATGATCACTGGCACTGGTAGAATTCGGC
DNA 2: CAACGTCATAGACGATTACATTGCTACATGGATGCTGTCTAGAGGATCCGA
modifications: single methylphosphonate linkage in the 3'-5' tracking strand (position marked only in Fig S6)
[2]
  binding result: binds

B3: Fork-A (mixed)
DNA 1: GTCGGATCCTCTAGACAGCTCCATGATCACTGGCACTGGTAGAATTCGGC
DNA 2: CAACGTCATAGACGATTACATTGCTACATGGAGCTCTCTAGAGGATCCGA
[3]
  binding result: binds
[4]
  binding result: binds
[5]
  binding result: binds
[6]
  binding result: no binding
[7]
  binding result: binds

B4: Fork-S (mixed)
DNA 1: GTCGGATCCTCTAGACAGCTCCATGATCACTGGCACTGGTAGAATTCGGC
DNA 2: CAACGTCATAGACGATTACATTGCTACATGGAGCTCTCTAGAGGATCCGA
modifications: single phosphorothioate linkage in the 3'-5' tracking strand (position marked only in Fig S6)
[2]
  binding result: binds

B5: Fork-AP (mixed)
DNA 1: GTCGGATCCTCTAGACAGCTCCATGATCACTGGCACTGGTAGAATTCGGC
DNA 2: CAACGTCATAGACGATTACATTGCTACATGGAGCTCTCTAGAGGATCCGA
modifications: single abasic site in the 3'-5' tracking strand (position marked only in Fig S6)
[2]
  binding result: binds
